The values that follow come from publication PMC8730730.

Series [1] in a line: Mca-Ala-Pro-Lys(Dnp) hydrolysis, spectrofluorimetry. The conditions noted are these: glycan lost; control: native rshACE2.
Another series in a line: SEC-MALS. The conditions noted are these: glycan lost; control: native rshACE2. (Size exclusion chromatography separates by hydrodynamic size, large species first.)

Regarding “rshACE2 (recombinant soluble human ACE2, APN01): PNGase F (deglyco-rshACE2)”, the “enzymatic_activity, percent_of_wt” value in series [1] is “increases”. For the same substance, in the series “SEC-MALS”, the oligomerisation result is “no change”.
